Measured values reported in article PMC10213618 (Frontiers in Immunology, 2023).
Primed or numbered codes have the meaning given here. Where no end group is shown, it is not given here. [ ]: non-standard residue; d: D form. PEG2′ = diethylene glycolate linker

B1: FabT (Fab, V domains shown)
VH: EVQLVESGGGLVKPGGSLRLSCAASGYTFTDNYIHWVRQAPGKGLEWIGYINPSSAYAHYNEKFKTRFTISVDKAKNSAYLQMNSLRAEDTAVYYCTRRYYSAMPFAYWGQGTLVTVSS
VL: DIQMTQSPSSLSASVGDRVTITCRASEDIYSGLAWYQQKPGKVPKLLIYDSSTLHTGVPSRFSGTGSGTDYTLTISSLQPEDVATYFCQQNYDFPLTFGQGTKLEIK
notes: humanised VH with human gamma1 CH1; humanised VL with human C kappa; also called parent FabT; unmodified FabT fragment; source: CHO-S XE, transient, purified (Protein G, SEC)
B2: aMSA-HAP chimeric peptide (peptide)
chain: IHVTIPADLWDWINK[PEG2′]TCPDGQRDRGGCSGPYSCGGDNCCAYAAASVYRGYSCKDTYEW
modifications: disulfide (positions not given here); not fully specified

Columns and labels:
human TNFα = target: T1, human TNFα (Homo sapiens, UniProt P01375); experiment: SPR; Biacore 8K+, multi-cycle kinetics, 25°C; Fab captured by immobilised anti-human Fab antibodies; serial dilutions of TNFα injected in HBS-EP+; 1:1 binding model; conditions: both partners purified
T1 construct: human tumour necrosis factor alpha, UniProt P01375

IL-17A [1] = target: T2, IL-17A (UniProt Q16552 24-155); experiment: SPR; IL-17A amine-coupled to a CM5 chip (110-270 RU); chimeric peptides 1000 nM to 15.5 nM flowed in HBS-EP+; steady state fitting; conditions: both partners purified
T2 construct: also called IL-17A homodimer; IL-7A [sic]

mouse serum albumin = target: T3, mouse serum albumin (mouse, UniProt P07724 25-608); experiment: SPR; HSA or MSA amine-coupled to a CM5 chip (110-270 RU); peptides 1000 nM to 15.5 nM flowed in HBS-EP+; multi-cycle kinetics, 1:1 binding model; conditions: both partners purified
T3 construct: mouse serum albumin; also called MSA

IL-17A [2] = target: T2, IL-17A; experiment: cell-based or functional assay

T3 sequence (P07724 25-608): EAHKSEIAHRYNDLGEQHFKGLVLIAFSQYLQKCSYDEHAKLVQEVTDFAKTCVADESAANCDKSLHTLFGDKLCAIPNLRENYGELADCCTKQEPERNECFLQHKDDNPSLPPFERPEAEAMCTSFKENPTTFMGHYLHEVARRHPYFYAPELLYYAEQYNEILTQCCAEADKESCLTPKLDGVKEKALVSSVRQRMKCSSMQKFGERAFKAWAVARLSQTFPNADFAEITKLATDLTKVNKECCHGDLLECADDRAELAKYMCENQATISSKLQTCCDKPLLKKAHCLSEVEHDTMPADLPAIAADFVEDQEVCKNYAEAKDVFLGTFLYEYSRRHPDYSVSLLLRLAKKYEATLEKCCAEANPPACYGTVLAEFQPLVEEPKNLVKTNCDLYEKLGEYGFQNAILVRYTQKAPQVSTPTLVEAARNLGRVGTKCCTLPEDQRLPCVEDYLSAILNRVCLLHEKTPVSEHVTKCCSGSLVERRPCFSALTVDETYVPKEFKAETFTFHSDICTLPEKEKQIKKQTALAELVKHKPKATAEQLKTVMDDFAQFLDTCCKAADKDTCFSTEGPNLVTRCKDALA
T1 sequence (P01375 whole entry): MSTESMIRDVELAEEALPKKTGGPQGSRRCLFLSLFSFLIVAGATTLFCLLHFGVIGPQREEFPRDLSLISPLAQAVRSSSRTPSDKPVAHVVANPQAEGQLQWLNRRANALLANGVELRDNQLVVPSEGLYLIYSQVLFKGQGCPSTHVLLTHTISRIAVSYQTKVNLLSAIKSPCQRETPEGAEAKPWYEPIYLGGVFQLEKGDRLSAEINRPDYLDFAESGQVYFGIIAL
T2 sequence (Q16552 24-155): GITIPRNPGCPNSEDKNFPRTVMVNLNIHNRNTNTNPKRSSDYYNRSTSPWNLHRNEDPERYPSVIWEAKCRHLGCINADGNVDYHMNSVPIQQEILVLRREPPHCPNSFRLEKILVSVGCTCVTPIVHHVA

Row | Binder | Kd (human TNFα) [nM] | koff (human TNFα) [s⁻¹] | kon (human TNFα) [M⁻¹ s⁻¹] | Kd (IL-17A [1]) [nM] | Kd (mouse serum albumin) [nM] | koff (mouse serum albumin) [s⁻¹] | kon (mouse serum albumin) [M⁻¹ s⁻¹] | IC50 of inhibition of IL-6 release from human dermal fibroblasts stimulated with IL-17A and TNFα (blocks IL-17A with IL-17RA) (IL-17A [2]) [nM]
1 | B1 | 0.221 | 9.9e-05 | 447000 | – | – | – | – | –
2 | B2 | – | – | – | 275 | 370 | 0.00166 | 4500 | 38
